Reference: publication PMC5490192, “An L-threonine transaldolase is required for L-threo-β-hydroxy-α-amino acid assembly during obafluorin biosynthesis” (Nature Communications, 2017)

T1: His6-ObaG (Pseudomonas fluorescens, UniProt A0A1X9LWZ7)
T1 construct: gene obiH
T1 sequence (A0A1X9LWZ7 1-440): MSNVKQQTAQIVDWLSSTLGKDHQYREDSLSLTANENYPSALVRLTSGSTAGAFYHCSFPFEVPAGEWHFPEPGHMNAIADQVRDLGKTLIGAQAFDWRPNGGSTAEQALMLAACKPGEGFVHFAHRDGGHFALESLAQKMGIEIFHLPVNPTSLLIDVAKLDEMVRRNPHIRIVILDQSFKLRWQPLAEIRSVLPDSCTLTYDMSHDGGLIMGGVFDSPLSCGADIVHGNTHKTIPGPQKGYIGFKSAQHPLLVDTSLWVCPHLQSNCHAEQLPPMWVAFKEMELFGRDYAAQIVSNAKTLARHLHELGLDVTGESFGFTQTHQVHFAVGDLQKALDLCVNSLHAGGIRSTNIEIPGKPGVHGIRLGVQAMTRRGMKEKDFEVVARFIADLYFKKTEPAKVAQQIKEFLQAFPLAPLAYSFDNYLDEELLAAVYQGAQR


What was measured:
His6-ObaG = target: T1, His6-ObaG; assay: UV/Vis absorption spectra; NaBH4 reduction of internal aldimine; assay type: binding; conditions: covalent (internal aldimine); pH 7.8; excess PLP removed
[1] = substrate: C[C@@H](O)[C@H](N)C(=O)O; assay: discontinuous HPLC L-TTA assay, Michaelis-Menten fit; assay type: biochemical, Pseudomonas fluorescens; conditions: co-substrate 4-nitrophenylacetaldehyde (10 mM in standard assay), L-threonine 1–200 mM, 25 μM enzyme, pH 7.8, 27 °C, PLP 0.4 mM, MgCl2 15 mM, NaCl 300 mM

Molecule | UV/Vis absorption spectra; NaBH4 reduction of internal aldimine (His6-ObaG) | Km [1] | kcat [1]
Cc1ncc(COP(=O)(O)O)c(C=O)c1O [pyridoxal-5′-phosphate] | these results strongly support ObaG being a PLP-dependent enzyme |  | 
His6-ObaG (Pseudomonas fluorescens) (protein) MSNVKQQTAQIVDWLSSTLGKDHQYREDSLSLTANENYPSALVRLTSGSTAGAFYHCSFPFEVPAGEWHFPEPGHMNAIADQVRDLGKTLIGAQAFDWRPNGGSTAEQALMLAACKPGEGFVHFAHRDGGHFALESLAQKMGIEIFHLPVNPTSLLIDVAKLDEMVRRNPHIRIVILDQSFKLRWQPLAEIRSVLPDSCTLTYDMSHDGGLIMGGVFDSPLSCGADIVHGNTHKTIPGPQKGYIGFKSAQHPLLVDTSLWVCPHLQSNCHAEQLPPMWVAFKEMELFGRDYAAQIVSNAKTLARHLHELGLDVTGESFGFTQTHQVHFAVGDLQKALDLCVNSLHAGGIRSTNIEIPGKPGVHGIRLGVQAMTRRGMKEKDFEVVARFIADLYFKKTEPAKVAQQIKEFLQAFPLAPLAYSFDNYLDEELLAAVYQGAQR |  | 40.2 ± 3.8 mM | 62.9 ± 1.9 min⁻¹
